Patent US20050002904A1, “Uses of vascular endothelial growth factor and type I collagen inducible protein (VCIP)” (priority 2003, published 2005)

Tested on: VCIP
Assay: VCIP mRNA induction by growth factors and cytokines in monolayer cells
Type: cell-based, human
Details: 6 h, northern blot
Experimental: FIGS. 1A-M show expression analysis and predicted amino acid sequence of VEGF and type I collagen inducible protein (VCIP). FIG. 1A: HUVECs were embedded into three-dimensional type I collagen gel in the presence of 20% adult human serum, 1× ITS and stimulated with VEGF^165 (100 ng/ml). Total RNA was prepared at the indicated time points. Northern blots were hybridized with a fragment of the VCIP (clone-33A) cDNA probe. The transcript size (3.4 kb) is indicated on the right. The numbers at the bottom of the gel represent the fold increase in VCIP mRNA levels, as compared with untreated cells. […] Total RNA was isolated at indicated time points and subjected to VCIP northern blot analysis. […] FIG. 1E: Poly(A)^+ RNA prepared from various human tissues was subjected to VCIP northern blot analysis by hybridization with the clone-33A cDNA probe. FIG. 1F: The blot shown in FIG. 1E was re-hybridized with a GAPDH probe, showing that equal amounts of RNA were loaded across the lanes. FIG. 1G: Detection of VCIP mRNA by RT-PCR (20 cycles): monolayer endothelial cells were treated for 30 min with: (1) untreated, (2) bFGF (20 ng/ml), (3) VEGF^165 (100 ng/ml), (4) PMA (20 ng/ml), (5) bFGF (20 ng/ml)+VEGF (100 ng/ml), (6) bFGF (20 ng/ml)+PMA (20 ng/ml), (7) VEGF (100 ng/ml)+PMA (20 ng/ml) and (8) bFGF (20 ng/ml)+VEGF (100 ng/ml)+PMA (20 ng/ml). […]

B1: EGF: growth factor (protein, UniProt P01133 23-1207, looked up)
Pro-epidermal growth factor: PQHWSCPEGTLAGNGNSTCVGPAPFLIFSHGNSIFRIDTEGTNYEQLVVDAGVSVIMDFHYNEKRIYWVDLERQLLQRVFLNGSRQERVCNIEKNVSGMAINWINEEVIWSNQQEGIITVTDMKGNNSHILLSALKYPANVAVDPVERFIFWSSEVAGSLYRADLDGVGVKALLETSEKITAVSLDVLDKRLFWIQYNREGSNSLICSCDYDGGSVHISKHPTQHNLFAMSLFGDRIFYSTWKMKTIWIANKHTGKDMVRINLHSSFVPLGELKVVHPLAQPKAEDDTWEPEQKLCKLRKGNCSSTVCGQDLQSHLCMCAEGYALSRDRKYCEDVNECAFWNHGCTLGCKNTPGSYYCTCPVGFVLLPDGKRCHQLVSCPRNVSECSHDCVLTSEGPLCFCPEGSVLERDGKTCSGCSSPDNGGCSQLCVPLSPVSWECDCFPGYDLQLDEKSCAASGPQPFLLFANSQDIRHMHFDGTDYGTLLSQQMGMVYALDHDPVENKIYFAHTALKWIERANMDGSQRERLIEEGVDVPEGLAVDWIGRRFYWTDRGKSLIGRSDLNGKRSKIITKENISQPRGIAVHPMAKRLFWTDTGINPRIESSSLQGLGRLVIASSDLIWPSGITIDFLTDKLYWCDAKQSVIEMANLDGSKRRRLTQNDVGHPFAVAVFEDYVWFSDWAMPSVMRVNKRTGKDRVRLQGSMLKPSSLVVVHPLAKPGADPCLYQNGGCEHICKKRLGTAWCSCREGFMKASDGKTCLALDGHQLLAGGEVDLKNQVTPLDILSKTRVSEDNITESQHMLVAEIMVSDQDDCAPVGCSMYARCISEGEDATCQCLKGFAGDGKLCSDIDECEMGVPVCPPASSKCINTEGGYVCRCSEGYQGDGIHCLDIDECQLGEHSCGENASCTNTEGGYTCMCAGRLSEPGLICPDSTPPPHLREDDHHYSVRNSDSECPLSHDGYCLHDGVCMYIEALDKYACNCVVGYIGERCQYRDLKWWELRHAGHGQQQKVIVVAVCVVVLVMLLLLSLWGAHYYRTQKLLSKNPKNPYEESSRDVRSRRPADTEDGMSSCPQPWFVVIKEHQDLKNGGQPVAGEDGQAADGSMQPTSWRQEPQLCGMGTEQGCWIPVSSDKGSCPQVMERSFHMPSYGTQTLEGGVEKPHSLLSANPLWQQRALDPPHQMELTQ
modifications: Pro-epidermal growth factor
A431 epidermoid carcinoma cells
  induction of VCIP expression: strongly induced
HdMVECs
  induction of VCIP expression: but not to EGF
